Experiments:
[1] = tested on: mouse beta cell proliferation; test: Beta cell proliferation assay; type: cell-based; conditions: mouse islets cultured in vitro for 5 days
Method: Islets from female, virgin 8 weeks old C57bl6Rcc mice were isolated. Islets were recovered o/n in growth medium and the next day equal numbers of islets/well (70/well) were treated for 5 days with placental lactogen (PL 500 ng/ml), C-MANF, or MANF. Half of the medium was changed daily to fresh medium with growth factors. Edu, a nucleoside analog alternatively to BrdU (Click-iT® Edu proliferation kit, Invitrogen) was added 48 hrs prior to islet harvesting. Islets were broken with trypsin and centrifuged onto glass slides in cytocentrifuge. Cells were fixed after cytospins and proliferating cells stained with Click-iT AlexaFluor azide color reagent, followed by insulin staining (guinea-pig 1:200, Abcam, Cambridge, UK) o/n at +4° C. to detect beta cells. Cells were washed and stained with secondary antibodies conjugated with Alexa Fluor® 488 (1:400, Molecular Probes, Life Technologies, CA, USA). […] Twelve images (10× magnification) were acquired with Fluorescence Zeiss Axiolmager M2 482 epifluorescence microscope equipped with 40×/Plan-Apochromat/0.95 Corr M27 and 63×/Plan-Apochromat/1.40 Oil/M27 and 483 AxioCam HRm camera using AxioVision4 software and analysed by Image Pro Plus software (Media Cybernetics, Bethesda, MD, USA) to quantify number of DAPI-positive nuclei. The relative numbers of proliferating beta cells were quantified and compared to wells of three to five repeats/treatment.

dopamine neurons = test: Survival of TH-positive dopamine neurons in dissociated midbrain floor cultures; type: cell-based, mouse; conditions: added to the culture medium, 5 days, TH-positive neurons counted
Method in brief: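 Dissociated E13.5 NMRI mouse midbrain floor neurons grown five days in DMEM/F12 with N2, with polypeptides at a range of concentrations, GDNF (100 ng/ml), or nothing. TH-immunopositive neurons were counted by imaging. Values are a percentage of GDNF-maintained TH-positive neurons, as mean ± SEM from at least three independent cultures.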

[2] = rat, in vivo, sc
Method: CDNF, C-CDNF and C-MANF were iodinated with ^125I-Na using the lactoperoxidase method. The protein in question was dissolved in 30 μl of 0.25 M phosphate buffer, pH 7.5, and mixed with ^125I-Na (1 mCi/2.8 μl; 1 mCi=37 mBq; GE Healthcare). The reaction was started by adding lactoperoxidase 10 μl of 50 μg/ml and 0.05% H2O2. The mixture was incubated at room temperature for 20 min and the reaction was stopped by adding 3 volumes of 0.1 M phosphate buffer, pH 7.5, containing 0.1 M NaI, 0.42 M NaCl, and then 25 μl of 2.5% BSA was added. Free iodine and iodinated protein were separated by gel filtration on Sephadex G-25 columns (PM10; GE Healthcare). For column equilibrium and elution, 0.1 M phosphate buffer, pH 7.5, with 1% BSA was used. The iodinated growth factors were sometimes concentrated by using YM-10 Centricon columns (Millipore). The specific activity of ^125I-labeled CDNF, C-CDNF and C-MANF was measured on the Wizard 3 1480 Automatic Gamma Counter (Perkin Elmer, Wallac) and was about 10^8 cpm/μg protein. The labelled protein were kept at 4° C. and used within 3 weeks after labelling.
^125I-CDNF, ^125I C-CDNF or ^125I C-MANF (all proteins at 10^6 cpm in 10 μl) were injected subcutaneously to adult male Wistar rats. […] Radioactivity was analyzed in different brain regions by gamma counter. […] The differences between groups were analyzed ANOVA followed by Tukey-Kramers post hoc test.

B1: KYDKQIDLSTVDLKKLRVKELKKILDDWGETCKGCAEKSDYIRKINELMPKYAPKAASARTDL (protein, listed as Homo sapiens)
chain: KYDKQIDLSTVDLKKLRVKELKKILDDWGETCKGCAEKSDYIRKINELMPKYAPKAASARTDL
- mouse beta cell proliferation (incorporation of Click EdU) [1]: stimulates
- protection of dopaminergic neurons in culture (result in words) (dopamine neurons): protects
- protection of dopaminergic neurons in culture (result in words) (dopamine neurons; listed as C-terminal MANF fragment): potently protected
- blood-brain-barrier penetration [2]: capable of penetrating
